Key:
Experiment in all cases: Steady-state kinetics of 2-ketoacid decarboxylase (ADH/NADH coupled)
Format in all cases: biochemical
Conditions in all cases: other: pH 7.5, 21° C.
[1] = test system: CC(C)C(=O)C(=O)O
Protocol: (§1) For the native KIVD and KIVD_VLV mutant, 2 ml overnight cultures of XL1B cells were transformed with pQE9 containing N-terminal his-tagged KIVD enzymes and grown in Terrific Broth (BP biomedical, Cat#3046-042) with 50 μg/mL of carbenicillin. (Fisher scientific, Cat# BP2648-5) For the GEOs, 2 ml overnight cultures of BLR cells were transformed with pet29b+ plasmid containing N-terminal his-tagged GEOs, and grown in Terrific Broth with 50 μg/mL of kanamycin. (Fisher scientific, Cat# BP906-5) These cultures were diluted 1:1000 in 500 mL of Terrific Broth with 1 mM MgSO4, 1% glucose, and 50ug/mL of corresponding antibiotics, then grown at 37° C. for 24 hours. Cultures were pelleted down at 4700 rpm for 10 mins and resuspended in auto-induction media (LB broth, 1 mM MgSO4, 0.1 mM TPP, 1×NPS, and 1×5052) for induction at 18° C. for 34 hours. At the end of induction, cells were centrifuged (4700 rpm, 4° C., 20 minutes), supernatant was removed, and cells were resuspended in 40 mL lysis buffer (100 mM Hepes pH 7.5, 100 mM NaCl, 10% glycerol, 0.1 mM TPP, 1 mM MgSO4, 10 mM Imidazole, 1 mM TCEP) and 1 mM PMSF) and sonicated for 2 minutes. Lysed cells were centrifuged at 4700 rpm at 4° C. for 60 mins to remove cell debris. Supernatant was loaded on gravity flow column with 700 μl of cobalt slurry (Fisher scientific, CAT# PI-90091) washed with 10 ml of wash buffer (100 mM Hepes pH 7.5, 100 mM NaCl, 10% glycerol, 0.1 mM TPP, 1 mM MgSO4, 10 mM Imidazole, and 1 mM TCEP). Cobalt bead bed was washed with 15 ml of wash buffer 5 times and proteins were eluted with 1000 μl of elution buffer (100 mM Hepes pH 7.5, 100 mM NaCl, 10% glycerol, 0.1 mM TPP, 1 mM MgSO4, 200 mM Imidazole, and 1 mM TCEP). Protein samples were immediately buffer exchanged with spin concentrators (Satorius, CAT# VS0112) into storage buffer (100 mM Hepes pH 7.5, 100 mM NaCl, 10% glycerol, 0.1 mM TPP, 1 mM MgSO4, and 1 mM TCEP) and stored at 4° C. until kinetics characterization. Protein concentrations were determined using a Synergy H1 spectrophotometer (Biotek) by measuring absorbance at 280 nm using their calculated extinction coefficients with ExPASy ProtParam Tool.^33 All other buffers and salts were purchased from Fisher Scientific unless otherwise specified.
(§2) The kcat and KM values of selective KIVD mutants were measured for the substrates: C3, C5, isoC5, and C8. All substrates were dissolved in MilliQ H2O and pH was adjusted to 7.5 as necessary. Activity was measured at 0.005 mM to 10 mM substrates. The assay was performed in a 96-well half-area plate. Each reaction contains a final concentration of 0.5 mM NADH, 1 mM DTT, 0.1 mM TPP, 1 mM MgSO4, reaction buffer (100 mM Hepes, 100 mM NaCl, 10% glycerol, pH 7.5) and ADH (Sigma Aldrich, A7011, 10 U/ml for C3, C5 and C8 reactions, 500 U/ml for isoC5 reactions). A wide range of ketoacid decarboxylase concentrations, 4.5 nM-15 μM, were used according to the activity of each enzyme toward different substrates in order to perform steady state kinetics measurement over a period of an hour. Absorbance readings were taken every 1-minute at OD340 at 21° C. for 60 minutes using the Synergy H1. Kinetic parameters (kcat and KM) were determined by fitting initial velocity versus substrate concentration data to the Michaelis-Menten equation.

[2] = test system: CCCC(=O)C(=O)O
Protocol: as §1, §2

[3] = test system: CC(=O)C(=O)O
Protocol: as §1, §2

[4] = test system: CCCCCCC(=O)C(=O)O
Protocol: as §1, §2

Q: What does the source list for “1OVM (1OVM_P23234), ketoacid decarboxylase, SEQ ID NO: 26 (Enterobacter cloacae)”?
A: Km [1]: 6.1 ± 0.6 mM; kcat [1]: 7.8 ± 0.4 s⁻¹; kcat/Km [1]: 1300 ± 130 M⁻¹ s⁻¹; Km [2]: 0.5 ± 0.1 mM; kcat [2]: 1 ± 0.1 s⁻¹; kcat/Km [2]: 2100 ± 420 M⁻¹ s⁻¹; Km [3]: 7.5 ± 0.1 mM; kcat [3]: 0.2 ± 0.01 s⁻¹; kcat/Km [3]: 32 ± 0.5 M⁻¹ s⁻¹; Km [4]: 0.021 ± 0.001 mM; kcat [4]: 1.7 ± 0.1 s⁻¹; kcat/Km [4]: 80000 ± 4300 M⁻¹ s⁻¹

Reference: US10829756B2, “Discovery of enzymes from the alpha-keto acid decarboxylase family” (priority 2015, dated 2020)
